test system: MS2 coat protein; experiment: apparent KD of MS2 coat protein; higher = weaker reporter binding; settings: Eterna round: R107; input ligand: theophylline 2 mM
Summary of the method: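 Apparent KD stands for the median, per design, of fits to normalised cluster binding curves. The curves came from titrating on-chip-transcribed RNA switches on Illumina sequencing clusters with SNAP-549-labelled MS2 coat protein, twofold from 0.7 or 1.5 nM to 3 µM. Buffer was 100 mM Tris-HCl pH 7.5, 80 mM KCl, 4 mM MgCl2, without or with constant ligand.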

Row | Sequence | apparent KD of MS2 coat protein [nM]
1 | CUUCGCAUAGGAAAACUAUGUGAAGAAAAUCGAGGACCGGUACGGCCGCCACUCGUCCUCAACAUGAGGAUCACCCAUGUAAUAA [Mat - Exclusion - Trytophan A - D6] | 20.4
2 | CGUCGAGACUGAAGGAGCGAGAUAACAACAUUGGGUCUCAACAUGAGGAUCACCCAUGUAUCUCAGGUAGGUCGCGGUGUCACCG [Exclusion Arginine B GF20] | 484
3 | AACAUGAGGAUCACCCAUGUGUCCUCGAAACGAGGACCGGUACGGCCGCCACUCGAAAAGGUGUUGACGAAAAGUCAGCACCAAA [Mat - Exclusion - Trytophan A - D16] | 451
4 | GGCUGCGAUGGCGGAAAUUAUUUACAUAGGCGAGGACCGGUACGGCCGCCACUCGAACGUACAUGAGGAUCACCCAUGUGAUAAU [theeternabot_sameState_MS2_Trp_A_1] | 70.8
5 | UCGCUCUGGGUGGGAUCCGGAGAUGUGGAAGGAGCGCUGGUAACAGCAGGUAGGUCGCCAACGGACAUGAGGAUCACCCAUGUAC [Same State - Arginine A (Freestyle 17)] | 44.2
6 | UGACAUUGCUCAGAUACCAGACAUGAGCAUCAGCCAUGUGCCAACAAGUACAAAAUAAAUGUCCCUUGGCAGCUGAGCAAUGUCU [TheoBX 23 #MS2Left #AlternativeMS2 #Theo22] | 153
7 | UACAUGAGGAUCACCCAUGUGUAGAGGGAUACCAGUGACAGUAAGCGCCCUUGGCAGCCCGUGAACAAUGGGUGAGCUAAAUAGU [#18 Exclusion-TheophyllineA] | 133
8 | GGGUGGUAGGCGGCCGCCACUGAUUUUCAUAUAUAUAUAACAUGAGGAUCACCCAUGUAGAUAUGCAGGACCGGGCCUGUUGUUU [aaaL] | 37.7
9 | UGUCAUGGAAACAUGACAGGUCUUACCGGUCGAGGACCGGUACGGCCGCCACUCGAUUGGUGGCACAUGAGGAUCACCCAUGUUA [SS Tryp A #16] | 34.3

same assay, conditions: Eterna round: R107; input ligand: tryptophan 2.4 mM

Row | Sequence | apparent KD of MS2 coat protein [nM]
10 | CGAUCCUGCAGGGAUACCAGCGCCGCUUGAUAACUGUGCACAUGAGGAUCACCCAUGUAGCGCCCUUGGCAGCCCAGCUAGAGGG [Same State Theophylline B GF25] | 14.7
11 | UGACAUUGCUCAGAUACCAGACAUGAGGAUCACCCAUGUACCAAGAAAACGUACAUAAAUGUCCCUUGGCAGCUGAGCAAUGUCU [TheoBX 10 #MS2Left #Theo2] | 531
12 | GAUAGUUGAUGGGAUACCAGCGUGCACAUGAGGAUCACCCAUGUGGUUCGUGUACGACGGCGCCCUUGGCAGCCCAUAUUGUGUA [#13 Same State - Theophylline B] | 181
13 | GCAAUAACGAUUGAUACCAGCAUGUUAACAUGAGGAUCACCCAUGUUAAGGAUAACAUAAUGCCCUUGGCAGCAACGGAAAGCCG [Ac] | 18.5
14 | UCGCCCAGGAAGGAUUCCUGGGAUAUGGAAGGAGCGCUGAUGCCAGCAGGUAGGUCGCCAACGGACAUGAGGAUCACCCAUGUAC [Same State - Arginine A (Freestyle 8)] | 21.2
15 | AAUAAACAUGAGGAUCACCCAUGUAUGGAAGGAGCGGUAAAUAAACCAGGUAGGUCGCCAGUGUGAGGGUCAUCUAUGUAAUAAA [Exclusion - Arginine A (Freestyle 1)] | 33.4
16 | AGCGACAUGCGUGAUACCAGCUACAUGAGGAUCACCCAUGUCAGCAGGAAACUGCUGUGUAGCCCUUGGCAGCACAGUGCAUGUC [Exclusion - Theophylline B (Freestyle 28)] | 13.8
17 | AUGUCACAUGAGGAUCACCCAUGUAUGGAUACCAGUUUAGUGAAUAACCCUUGGCAGCCAAGGAUGCGACAGAAAUCCGGAAAAC [theeternabot_sameState_MS2_Theo_A_22] | 20.5
18 | UUUUUCGUAGGUUAUAGUUUAGAAACUGAAGGAGCGUGGUAAUACACAGGUAGGUCGCAGAUUUUACAUGAGGAUCACCCAUGUU [JR_ExcArginiA_Sub013] | 22.7
19 | GGACUAACCAGAAGGAGCGGCACGCAGAAACUGCAAUUUCCUCCGCACGAGGAUCACCCGUGUCAGGUAGGUCGCUGGUUAGUCG | 25.4
20 | CGGUUUGUGAUGGAUACCAGCAGAGUGGCUGUUUAUCCUGACAUGAGGAUCACCCAUGUGUGCCCUUGGCAGCUGUUGUGGGCUG [8.aB] | 74.4
21 | GAUGAACUAUUUGAUACCAGACAACAUGAGGAUCACCCAUGUGCGCGUCGUCCUCUGCCUGUCCCUUGGCAGCAAAUAGUUUAUC [XTheo B #10] | 36.6
22 | UAUAUAUUGAUGGAUACCAGCAGAGAAAACGUUUAUCCUAACAUGAGGAUCACCCAUGUAUGCCCUUGGCAGCUGUUGAUAUAUA [8.K] | 18.4
23 | AGAUAACAUGGUUUAAUAAGAUAAACUGAUACCAGUGUAUAUAAUCACCCUUGGCAGCAGCAACAUGAGGAUCACCCAUGUAAUA [JR_SSTheophyA_Sub014] | 20.6
24 | UGUGUAAUUGUCUGGUAGAAUUAUUUGUUUCGAGGACCGGUACGGCCGCCACUCGAUAUUUACAUGAGGAUCACCCAUGUUAGCU [JR_SSTryptoA_Sub004] | 11.6
25 | AAACAGUCGGACAUGAGGAUCACCCAUGUGCGAGGACCGGUACGGCCGCCACUCGACAAGGGCGGUCCCGAAGCAAACAUACGCG [Enedquceor] | 25.4
26 | UGUUUCGCGGGCGAUACCAGCUUGAUCGUACUGGCCUGGUACAUGAGGAUCACCCAUGUAAGCCCUUGGCAGCGCGCGCGAGACG [#1 Exclusion - Theophylline B Attempt #3 (HarryS)] | 15.7
27 | GGUGGCGGGACUGAUACCAGCCACCACCGAUAGACCACAUGAGGAUCACCCAUGUUGGGUGGCCCUUGGCAGCAGUCUUGCUGCC [#1 Same State - Theophylline B Attempt #12 (HarryS)] | 907
28 | AGUAUCAGUGGAAGGAGCGUCGCGAAUGCCACAUGAGGAUCACCCAUGUCGCCUUGAGCGCGACAGGUAGGUCGCCACGGUAGGC [SS-ArgB3] | 140
29 | CGUCGAGACUGAAGGAGCGAGAUAACAACAUUGGGUCUCAACAUGAGGAUCACCCAUGUAUCUCAGGUAGGUCGCGGUGUCACCG [Exclusion Arginine B GF20] | 298
30 | AACAUGAGGAUCACCCAUGUGUCCUCGAAACGAGGACCGGUACGGCCGCCACUCGAAAAGGUGUUGACGAAAAGUCAGCACCAAA [Mat - Exclusion - Trytophan A - D16] | 820
31 | AAACGUUGCUCAGAUACCAGACAUGAGGAUCACCCAUGUACCAAGGUACCCGAAAGGAAUGUCCCUUGGCAGCUGAGCAACGAAA [MAT - Exclusion Theophlline B - Mod of Eli - D21] | 10.4
32 | AGCGACAUGCGUGAUACCAGCUACAUGAGGAUCACCCAUGUACGUCAGAAAUGACUGUGUAGCCCUUGGCAGCAUAAUGCAUGUC [Exclusion - Theophylline B (Freestyle 19)] | 44
33 | UCGCUCUGGGUGGGAUCCGGAGAUGUGGAAGGAGCGCUGGUAACAGCAGGUAGGUCGCCAACGGACAUGAGGAUCACCCAUGUAC [Same State - Arginine A (Freestyle 17)] | 26.7
34 | UGACAUUGCUCAGAUACCAGACAUGAGCAUCAGCCAUGUGCCAACAAGUACAAAAUAAAUGUCCCUUGGCAGCUGAGCAAUGUCU [TheoBX 23 #MS2Left #AlternativeMS2 #Theo22] | 12.3
35 | GAAAGAUGAGGCGGCAGUACCGAUGUCGAUACCAGCAUGAACAAAUGCCCUUGGCAGCGACAUGAGGAUCACCCAUGUAUCUGCG [Reraatlaan] | 11.6
36 | UACAUGAGGAUCACCCAUGUGUAGAGGGAUACCAGUGACAGUAAGCGCCCUUGGCAGCCCGUGAACAAUGGGUGAGCUAAAUAGU [#18 Exclusion-TheophyllineA] | 57.4

— the supplement of paper PMC9170038
